Data as given in the DeepSol protein solubility set.

Experiment: soluble on expression in E. coli; label from the status in PepcDB or PDB records

Row | Sequence | soluble on expression in E. coli
1 | GFFDLRNELPMNCRARRKVDLSDGALKDIARIDAIWSEQMAKFPDAFLFGEWSIADAMYAPVALRFETYGIELSQGAKAYQQKVLASHAVQKWLAEASQETDIVEEDEAGVEV | not soluble
2 | GFILKRGWTVLESKYLDLLAQKYDCEEKVVTEIINLKAILNLPKGTEHFVSDLHGEYQAFQHVLRNGSGRVKEKIRDIFSGVIYDREIDELAALVYYPEDKLKLIKHDFDAKEALNEWYKETIHRMIKLVSYCSSKYTRSKLRKALPAQFAYITEELLYKTEQAGNKEQYYSEIIDQIIELGQADKLITGLAYSVQRLVVDHLHVVGDIYDRGPQPDRIMEELINYHSVDIQWGNHDVLWIGAYSGSKVCLANIIRICARYDNLDIIEDVYGINLRPLLNLAEKYYDDNPAFRPKADENRPEDEIKQITKIHQAIAMIQFKLESPIIKRRPNFNMEERLLLEKIDYDKNEITLNGKTYQLENTCFATINPEQPDQLLEEEAEVIDKLLFSVQHSEKLGRHMNFMMKKGSLYLKYNGNLLIHGCIPVDENGNMETMMIEDKPYAGRELLDVFERFLREAFAHPEETDDLATDMAWYLWTGEYSSLFGKRAMTTFERYFIKEKETHKEKKNPYYYLREDEATCRNILAEFGLNPDHGHIINGHTPVKEIEGEDPIKANGKMIVIDGGFSKAYQSTTGIAGYTLLYNSYGMQLVAHKHFNSKAEVLSTGTDVLTVKRLVDKELERKKVKETNVGEELLQEVAILESLREYRY | not soluble
3 | GGGGGGMKRFYIANEDEIKAGKTTDVYFLRTKKILEVKNIRKKVLADVTTTSLPNNWRWGVLVGVEEVAKLLEGIPVNVYAMPEGTIFHPYEPVLQIEGDYADFGIYETALLGMLSQASGIATAALRIKIAAKFKPVYSFGIRHMHPAIAPMIDRAAFIGGCDGVSGVLGAEMMGEKAVGTMPHALIITVGDQVKAWKYFDEVIEEEVPRIALVDTFYDEKVEAVMAAEALGKKLFAVRLDTPSSRRGNFRKIIEEVRWELKVRGYDWVKIFVSGGLDEEKIKEIVDVVDAFGVGGAIASAKPVDFALDIVEVEGKPIAKRGKLSGRKQVYRCENGHYHVVPANKKLERCPVCNAKVEPLLKPIIENGEIVVEFPKAREIREYVLEQAKKFNLEI | soluble
4 | GGRLLGALCVFKDITDAVELAEEVTNLKQVRTMLEAIIQSSDEAISVVDENGIGLLINKAYTKMTGLSEKEVIGKPANTDISEGESMHLKVLETRRPVRGVRMKVGPNEKEVIVNVAPVIVDG | not soluble
5 | GGSGPLKPEEHEDILNKLLDPELAQSERTEALQQLRVNYGSFVSEYNDLEEKVAHAKEENLNMHQMLDQTLLELNNM | soluble
6 | GHHHHHHHHHHSSGHIEGRHMRVLFVSSPGIGHLFPLIQLAWGFRTAGHDVLIAVAEHADRAAAAGLEVVDVAPDYSAVKVFEQVAKDNPRFAETVATRPAIDLEEWGVQIAAVNRPLVDGTMALVDDYRPDLVVYEQGATVGLLAADRAGVPAVQRNQSAWRTRGMHRSIASFLTDLMDKHQVSLPEPVATIESFPPSLLLEAEPEGWFMRWVPYGGGAVLGDRLPPVPARPEVAITMGTIELQAFGIGAVEPIIAAAGEVDADFVLALGDLDISPLGTLPRNVRAVGWTPLHTLLRTCTAVVHHGGGGTVMTAIDAGIPQLLAPDPRDQFQHTAREAVSRRGIGLVSTSDKVDADLLRRLIGDESLRTAAREVREEMVALPTPAETVRRIVERISG | soluble
7 | GHHHHHHHHHHSSGHISGDAMEDKQERANYEKLQQKFQMLMSKHQAHVRPQFESLEKINKDIVGWIKLSGTSLNYPVLQGKTNHDYLNLDFEREHRRKGSIFMDFRNELKNLNHNTILYGHHVGDNTMFDVLEDYLKQSFYEKHKIIEFDNKYGKYQLQVFSAYKTTTKDNYIRTDFENDQDYQQFLDETKRKSVINSDVNVTVKDRIMTLSTCEDAYSETTKRIVVVAKIIKVS | soluble
8 | GIDPFTMAAYTIVKEEESPIAPHRLFKALVLERHQVLVKAQPHVFKSGEIIEGDGGVGTVTKITFVDGHPLTYMLHKFDEIDAANFYCKYTLFEGDVLRDNIEKVVYEVKLEAVGGGSKGKITVTYHPKPGCTVNEEEVKIGEKKAYEFYKQVEEYLAANPEVFA | soluble
9 | GIDPFTTARKSTGGKAPRKGGMVVKKRKLATEAGGSDERPKYLPGKHPKNQEKTPHVDYNAPLNPKSELFLDDWHIPKFNRFISFTLDVLIDKYKDIFKDFIKLPSRKFHPQYYYKIQQPMSINEIKSRDYEYEDGPSNFLLDVELLTKNCQAYNEYDSLIVKNSMQVVMLIEFEVLKAKNLKRNYLINSEVKAKLLHYLNKLVDATEKKINQALLGASSPKNLDDKVKLSEPFMELVDKDELPEYYEIVHSPMALSIVKQNLEIGQYSKIYDFIIDMLLVFQNAHIFNDPSALIYKDATTLTNYFNYLIQKEFFPELQDLNERGEINLEFDKFEFENYLAIGGGGPAAAGALAISALDND | soluble
10 | GIPMETKGGTVKAASGFNATEDAQVLRKAMKGLGTDEDAIIGVLACRNTAQRQEIRTAYKSTIGRDLLEDLKSELSSNFEQVILGMMTPTVLYDVQELRRAMKGAGTDEGCLIEILASRNPEEIRRINQTYQQQYGRSLEEDICSDTSFMFQRVLVSLTAGGRDEGNYLDDALVKQDAQDLYEAGEKRWGTDEVKFLSILCSRNRNHLLHVFDEYKRISQKDIEQSIKSETSGSFEDALLAIVKCMRNKPAYFAERLYKSMKGLGTDDSTLIRVMVSRAEIDMLDIRANFKRLYGKSLYSFIKGDTSGDYRKVLLILCGGDD | soluble
11 | GKDFTYNVDANVSFARNKILYMDEVPKQFSYMNQTGGSTGRQTGVYNYIRLYQYSDFITGADGELTLKPELPQPYQKVYPGDAMYADLNGDHIVDGNDKSVAGYATRPEYVFGMNMGFDWKGFNFTMQWVGSKNVNRMYDIEYRIPYTNAGKRGLLTYFYDGCWTPENQLGATYPRPSEESESWNSEPSTLWLVDASYLRLKSLSFGYTITGKKFLKKLGLSSLGLNFSGYNLLTFSPLKYLDPESDPNRFGDYPLIKVYSFGLNLNF | not soluble
12 | GKENDAGDIVEKFDPTEAQSVEVQDERPETTIGRGKPTDEVVLLSEAHRPEEKMAAYEDEHGTYIMNSKDLRAVQHVERLTKMGVHSLKIEGRTKSFYYCARTAQVYRKAIDDAVAGKPFDESLMGTLESLAHRGYTEGFLRRHTHDTYQNYDYGYSVSDAQQFVGEFTGKRRGDMAEVEVKNKFVVGDSLELMTPKGNVVFTLEAMENRKSESIEDAKGNGHFVFIPVPEDMDLEYGLLMRNLNAGQDTRNPTGK | not soluble
13 | GKHTVPYTISVDGITALHRTYFVFPENKKVLYQEIDSKVKNELASQRGVTTEKINNAQTATYTLTLNDGNKKVVNLKKNDDAKNSIDPSTIKQIQIVVK | soluble
14 | GKITFYEDRGFQGHCYESSSDCPNLQPYFSRCNSIRVDSGCWMLYERPNYQGHQYFLRRGDYPDYQQWMGFNDSIRSCRLIPQHTGTFRMRIYERDDFRGQMSEITDDCPSLQDRFHLTEVHSLNVLEGSWVLYEMPSYRGRQYLLRPGEYRRYLDWGAMNAKVGSLRRVMDFY | soluble
15 | GKRSERQQADMEMMKDRFAKLLLGEDMSGGGKGVSSALALSNAITNLAASIFGEQTKLQPMPQDRQARWKKEIDWLLSVTDHIVEFVPSQQTSKDGVCTEIMVTRQRGDLLMNIPALRKLDAMLIDTLDNFRGHNEFWYVSRDSEEGQQARNDRTNDKWWLPPVKVPPGGLSEPSRRMLYFQKDSVTQVQKAAMAINAQVLSEMEIPESYIDSLPKNGRASLGDSIYKSITEEWFDPEQFLAMLDMSTEHKVLDLKNRIEASVVIWKRKLHTKDTKSSWGSAVSLEKRELFEERAETILVLLKQKFPGLPQSSLDISKIQFNKDVGQAVLESYSRILESLAYTVMSRIEDVLYTDTLALKQTLLA | soluble
16 | GLAIEGPSEAKMSCKDNKDGSCTVEYIPFTPGDYDVNITFGGRPIPGSPFRVPVKDVVDPGKVKCSGPGLGAGVRARVPQTFTVDCSQAGRAPLQVAVLGPTGVAEPVEVRDNGDGTHTVHYTPATDGPYTVAVKYADQEVPRSPFKIKVLPAHDASKVRASGPGLNASGIPASLPVEFTIDARDAGEGLLTVQILDPEGKPKKANIRDNGDGTYTVSYLPDMSGRYTITIKYGGDEIPYSPFRIHALPTGDASKCLVTVSIGGHGLGACLGPRIQIGQETVITVDAKAAGEGKVTCTVSTPDGAELDVDVVENHDGTFDIYYTAPEPGKYVITIRFGGEHIPNSPFHVLACDPLPHEEEPSEVPQLRQPYAPPRPGARPTHWATEEPVVPVEPMESMLRPFNLVIPFAVQKGELTGEVRMPSGKTARPNITDNKDGTITVRYAPTEKGLHQMGIKYDGNHIPGSPLQFYVDAINSRHVSAYGPGLSHGMVNKPATFTIVTKDAGEGGLSLAVEGPSKAEITCKDNKDGTCTVSYLPTAPGDYSIIVRFDDKHIPGSPFTAKITGDDSMRTSQLNVGTSTDVSLKITESDLSQLTASIRAPSGNEEPCLLKRLPNRHIGISFTPKEVGEHVVSVRKSGKHVTNSPFKILVGPSEIGDASKVRVWGKGLSEGHTFQVAEFIVDTRNAGYGGLGLSIEGPSKVDINCEDMEDGTCKVTYCPTEPGTYIINIKFADKHVPGSPFTVKVTGEGRMKESITRRRQAPSIATIGSTCDLNLKIPGNWFQMVSAQERLTRTFTRSSHTYTRTERTEISKTRGGETKREVRVEESTQVGGDPFPAVFGDFLGRERLGSFGSITRQQEGEASSQDMTAQVTSPSGKVEAAEIVEGEDSAYSVRFVPQEMGPHTVAVKYRGQHVPGSPFQFTVGPLGEGGAHKVRAGGTGLERGVAGVPAEFSIWTREAGAGGLSIAVEGPSKAEIAFEDRKDGSCGVSYVVQEPGDYEVSIKFNDEHIPDSPFVVPVASLSDDARRLTVTSLQETGLKVNQPASFAVQLNGARGVIDARVHTPSGAVEECYVSELDSDKHTIRFIPHENGVHSIDVKFNGAHIPGSPFKIRVGEQSQAGDPGLVSAYGPGLEGGTTGVSSEFIVNTLNAGSGALSVTIDGPSKVQLDCRECPEGHVVTYTPMAPGNYLIAIKYGGPQHIVGSPFKAKVTGPRLSGGHSLHETSTVLVETVTKSSSSRGSSYSSIPKFSSDASKVVTRGPGLSQAFVGQKNSFTVDCSKAGTNMMMVGVHGPKTPCEEVYVKHMGNRVYNVTYTVKEKGDYILIVKWGDESVPGSPFKVKVP | soluble
17 | GLNHMTARYLREEHHMFRAAFRKFLEKEAYPHYNDWEKRGIIPRSFWAKMGENGFLCPWVDEKYGGLNADFAYSVVINEELEKVGSSLVGIGLHNDIVTPYIASYGTEEQKQKWLPKCVTGELITAIAMTEPGAGSDLANISTTAVKDGDYYIVNGQKTFITNGIHADLIVVACKTDPQAKPPHRGISLLVVERDTPGFTRGRKLEKVGLHAQDTAELFFQDAKVPAYNLLGEEGKGFYYLMEKLQQERLVVAIAAQTAAEVMFSLTKQYVKQRTAFGKRVSEFQTVQFRLAEMATEIALGRTFVDRVIEEHMAGKQIVTEVSMAKWWITEMAKRVAAEAMQLHGGYGYMEEYEIARRYRDIPVSAIYAGTNEMMKTIIARQLDL | soluble
18 | GLQTYEYGLKPQDGFEVITHFEFTSQHLDILNRLFTPLIGVESIGLYHFMSQFIDESQQLGLTHYIFMNELKINLLDFREQMDNLEAIGLIKTFVRHEEKYSHFVYELIQPPTAYQFFNDPMLSVFLFSEVDKKRYQALKSYFEKDEKDLSKYQQTTRKFTEVFNVPKKVNVSDQINLKQIKHYDGIDLSNETFDFEMLRQMLNHHFISNEIIDKEAKNLIIQLATLYGITEDGMKNVILSSITSAQQLSFEEMRKKARTYYLIEHDNQLPKLEHQTNKINDEKKDRQAEDTTNDWLQLLDETSPIDMLASWSDSEPTQSQKSMIEELINREKMNFGVINILLQFVMLKEDMKLPKSYIFEIASNWKKIGISNAKQAYEYALQVNQPKNYETHSNDKRQNNRGRQNQFLSKEKTPKWLQNRDDQEENKEINDDTLEEDRQAFLEKLNQKWKEEDN | not soluble
